Assay results from US20250320284A1 (AC IMMUNE, published 2025).

T1: mouse ASC (mouse, UniProt Q9EPB4 1-193)
T1 construct: recombinant mASC in ELISA and SPR; endogenous ASC of J774.A1 cells in Western blot and immunofluorescence; also called mASC
T1 sequence: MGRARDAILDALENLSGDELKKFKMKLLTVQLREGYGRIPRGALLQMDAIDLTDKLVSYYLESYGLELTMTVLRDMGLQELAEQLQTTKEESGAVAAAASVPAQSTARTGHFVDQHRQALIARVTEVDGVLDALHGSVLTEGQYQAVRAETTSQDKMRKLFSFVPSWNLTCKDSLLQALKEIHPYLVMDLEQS

T2: CARD domain of human ASC (human, UniProt Q9ULZ3 107-195)
T2 construct: biotinylated in BLI; also called hCARD; human CARD
T2 sequence: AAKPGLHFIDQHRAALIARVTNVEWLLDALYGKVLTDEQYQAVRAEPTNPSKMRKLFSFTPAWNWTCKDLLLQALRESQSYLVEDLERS

B1: ACI-8016-29C5E11-AB1 (antibody, V domains shown)
VH: EVQLQQSGAELVRPGSSVKMSCRTSGYTFTNNGITWVKQRPGQGLEWIGYIYVGNGYTEYNEKFKDKATLTSDTASSTVYMQLNSLTSEDSAIYFCARLDRGRALDYWAQGTTLTVSS
VL: DIVLTQSPASLAVSLGQRATISCRASKSVSSSAYSYMHWYQQKPGQPPKLLIHLASNLESGVPARFSGSGSGTDFTLNIHPVEEEDAATYYCQHSWELPYTFGGGTKLEIK
notes: also called 936.29C5E11
B2: ACI-8016-421B10C12D2-AB1 (antibody, V domains shown)
VH: EVQLQQSGADLVKPGASVKLSCTASGFNIEDTYIHWVKQRPARGLEWVGRIDPANGNTDYDPKFQGKATMITDTSSNTVYLQVSSLTSEDTAVYFCGRHDGYDMDYWGQGTSVTVSS
VL: DIVMSQSPSSLAVSAGEKVTMSCQSSQSLLNGRTRRNYLAWYQQKPGQSPKLLIYWASTRKSGVPDRFTGSGSGTDFTLTITSVQAEDLAVYYCKQSYNLVTFGAGTKLELK
B3: ACI-8016-11A3F3-AB1 (antibody, V domains shown)
VH: QVQLQQSGAELARPGTSVKLSCKASGYTFISFGLSWVKQRTGQGLEWIGEIYPRIDNPYYNEKFKGKAILTADKSSSTAYMELRSLTSEDSAVYFCARYFTKGNYFDYWGQGTTLTVSS
VL: DIQMTQSPASLAASVGETVTITCRASENIYYSLAWYQQKQGKSPQVLIYYANSLEDGVPSRFSGSGSGTQYSLKINSMQPEDTATYFCKQAYDVPFTFGTGTKLELK
notes: also called 936.11A3F3
B4: ACI-8016-407E10A9-AB1 (antibody, V domains shown)
VH: EVQLVESGGGFVKPGGSLKLSCAASGFTFSNYAMSWVRQTPEKRLEWVATIYSGGIFTYYPDSVKGRFTISRDSAKNTLYLQMTSLRSEDTAIYYCARLGGSYWGQGTLVTVSA
VL: QAVVTQESALTTSPGETVTLTCRSSTGAVTTNNYANWVQEKPDHFFTGLIGGTDNRPPGVPARFSGSLIGDKAALTITGAQTEDEAIYFCALWYNNHWVFGGGTKLTVL
B5: ACI-8016-203G8B10-AB1 (antibody, V domains shown)
VH: EVKLEESGGGLVHPGGSMKLSCVASGFTFSNYWMNWVRQSPEKGLEWVAQIRLKSENYATHSAESVKGRLTISRDDSKSSVYLQMNNLRAEDTGIYYCLAGWGLDYWGQGTTLTVSS
VL: DIVMTQAAFSNPVTLGTSASISCRSSKTLLHSDGFTYLYWYLQRPGQSPQLLIHRVSNLASGVPNRFSGSESGTDFTLRISRVEPEDVGVYYCAQMLELPLTFGSGTKLELK
B6: ACI-8016-402H11C9-Ab1 (antibody, V domains shown)
VH: QVQLQQSGAELARPGASVKMSCKASGYTFTTYTMHWVKQRPGQGLEWIGYINPSSGYTYYNQNFKDKATLTADKSSSTAYMQLSNLASDDSAVYYCALGGNPAWFAYWGQGTLVTVSA
VL: DIVLTQSPATLSVTPGDSVSLSCRASQSIGNNLHWYQHKSHESPRLLIKYASQSISGIPSRFSGSESGTDFTLSINSVETEDFGIYFCQQSKSWPWTFGGGTKLEIK
B7: ACI-8016-7G3B5-AB1 (antibody, V domains shown)
VH: EVQLQQSVAELVRPGASVKLSCTASGFNIKNTYMHWVKQRPEQGLEWIGRIDPANGNTKYVPKFQGKATITADTSSKTAYLQLSSLTSEDTAIYYCTRWGFDKDGVVYAMDYWGQGTSVTVSS
VL: DVVLTQSPATLSVTPGDSVSLSCRASQSIYNNLHWYQQKSHESPRLLVKYASQSISGIPSRFSGSGSGTDFTLSINSVETEDFGMYFCQQSNSWPLTFGAGTKLELK
notes: also called 936.7G3B5
B8: ACI-8016-417E12A8-AB1 (antibody, V domains shown)
VH: QVQLQQPGAELVRPGASVILSCKASGYTFTSSWITWVKQRPGQGLEWIGNIYPSDSYTNSNQKFKDKATLTVDKSSSTAYMHLISPTSEDSAVYYCTRKDFVYDAWYFDVWGAGTTVTVSS
VL: DIVMTQSQKFMSTSVGDRVTVTCKASQNVGTNVAWYQQRPGQSPKPLIYSASYRNSGVPDRFTGSGSGTDFTLTITNVQSEDLAEYFCQQYNNYPLTFGAGTKLELK
B9: ACI-8016-2516A8C6-AB1 (antibody, V domains shown)
VH: QVQLQQSGAELARPGASVKLSCKASGHTFTSYGISWVKQRTGQGLEWIGKIYPRSGNTYYDEKFKGKATLTADKPSTTAYMELRSLTSEDSAVYFCATRDYWGQGTTLTVSS
VL: QIVLTQSPVIMSASPGEKVTITCSASSSVSYMYWFQQKPGTSPKFWIYSTSNLASGVPARFSGSGSGTSYSLTISRMEAEDAATYYCQQRSRYPWTFGGGTKLEIK
B10: ACI-8016-27A1G4-AB1 (antibody, V domains shown)
VH: QVQLQQSDAELVKPGASVKISCKVSGYTFTDHTIHWMRQRPEQGLEWIGYIYPGDASSYYNEKFKGKATLTADQSSNTAYIQVNSLTSEDSAVYFCARPLYSYASYYWFAYWGQGTLVTVSA
VL: DIQMNQSPSSLSASLGDTITITCHASQNINVWLTWYQQKPGNIPKLLIYKASNLHTDVPSRFSGSGSGTGFTLTISSLQPEDIATYYCQQGQSYPLTFGGGTKLEIK
notes: also called 936.27A1G4
B11: ACI-8016-14G5B8-AB1 (antibody, V domains shown)
VH: EVQLQESGPELVKPGSSVKISCKASGYTFADHYMNWVKQSHGKSLEWIGDINPNNGGSVYNQKFKGKATLTVDKSSSTAYMELRSLTSEDSAVYFCARRRAHYYDGPYFDYWGQGTTLTVSS
VL: DIVMTQSQKFMSTSVGDRVSLTCKASQIVGTAVAWYQQKPGQSPKLLIYSASIRYTGVPDRFTGSGSGTDFTLTISNMQSEDLADYFCQQYSNYPTFGAGTKLELK
notes: also called 936.14G5B8

Assays:
[1] = target: T3, human ASC (apoptosis associated speck-like protein containing a caspase-recruitment domain) (human, UniProt Q9ULZ3 1-195); assay: ELISA, coated hASC;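 also: antibody binding to plate-coated recombinant human ASC, read as phosphatase substrate absorbance, EC50 from four-parameter variable-slope fit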
T3 construct: recombinant hASC in ELISA and SPR; endogenous ASC (cytoplasmic or specks) in Western blot and immunofluorescence; also called hASC; PYCARD

PYD domain of human ASC = target: T4, PYD domain of human ASC (human, UniProt Q9ULZ3 1-91, limits assumed); assay: ELISA, coated hPYD;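 also: monoclonal antibody binding to plate-coated human ASC PYD measured by ELISA, with a phosphatase substrate absorbance read-out and EC50 from a variable slope curve fit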
T4 construct: biotinylated in BLI; His/MBP-tagged in the alanine ELISA; also called hPYD; human PYD
T4 sequence (Q9ULZ3 1-91 limits assumed): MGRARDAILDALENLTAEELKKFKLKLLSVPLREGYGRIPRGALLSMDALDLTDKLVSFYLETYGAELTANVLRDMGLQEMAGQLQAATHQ

mouse ASC = target: T1, mouse ASC; assay: ELISA, coated mASC
CARD domain of human ASC = target: T2, CARD domain of human ASC; assay: ELISA, coated hCARD
[2] = target: T3, human ASC (apoptosis associated …); assay: SPR affinity mode, mAb captured;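 also: Single-cycle SPR kinetics with mAbs captured on goat anti-mouse antibody, double-referenced against blank flow cell and buffer cycle, fitted by a 1:1 kinetic model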
[3] = target: T3, human ASC (apoptosis associated …); assay: SPR avidity mode, ASC immobilized;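 also: Single-cycle SPR kinetics on Biacore T200, antibodies injected at 1.2–100 nM (3-fold steps), 300 s association, 900 s dissociation, double-referenced, 1:1 kinetic model fit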

Row | Binder | EC50 [1] [nM] | binding result (PYD domain of human ASC) | EC50 (mouse ASC) [nM] | EC50 (CARD domain of human ASC) [nM] | EC50 (PYD domain of human ASC) [nM] | binding result (CARD domain of human ASC) | Kd [2] [nM] | koff [2] [s⁻¹] | kon [2] [M⁻¹ s⁻¹] | Kd [3] [nM] | koff [3] [s⁻¹] | kon [3] [M⁻¹ s⁻¹] | binding result (mouse ASC)
1 | B1 | 0.16 | no binding | 0.14 | 0.14 | – | – | – | – | – | – | – | – | –
2 | B2 | 0.06 | – | – | – | 0.07 | no binding | 0.36 | 0.00017 | 470000 | < 0.01 | 2.2e-07 | 190000 | –
3 | B3 | 0.11 | no binding | 0.63 | 0.12 | – | – | – | – | – | – | – | – | –
4 | B4 | 0.06 | no binding | – | 0.07 | – | – | 0.11 | 1.5e-05 | 130000 | < 0.01 | 5.6e-07 | 110000 | no binding
5 | B5 | 0.09 | – | – | – | 0.08 | no binding | 1.34 | 0.00017 | 130000 | 0.35 | 2.9e-05 | 83000 | no binding
6 | B6 | 0.06 | no binding | – | 0.06 | – | – | 0.55 | 0.00019 | 360000 | 10.5 | – | – | no binding
7 | B7 | 0.19 | – | 0.17 | – | 0.16 | no binding | – | – | – | – | – | – | –
8 | B8 | 0.07 | – | – | – | 0.06 | no binding | 0.12 | 2.9e-05 | 250000 | < 0.01 | 4.1e-07 | 110000 | –
9 | B9 | 0.26 | – | 0.26 | – | 0.16 | no binding | – | – | – | – | – | – | –
10 | B10 | 0.15 | no binding | 0.11 | 0.13 | – | – | – | – | – | – | – | – | –
11 | B11 | 0.09 | no binding | 0.16 | 0.17 | – | – | – | – | – | – | – | – | –
